Data taken from patent US20190135918A1 (ICHNOS SCIENCES, published 2019).

How the values were obtained:
[1] = molecular target: T1, soluble extracellular region of cynomolgus monkey CD38 antigen fused to a 6-His-tag (cynomolgus monkey, UniProt Q5VAN0 45-301); test: SPR
T1 construct: also called cynomolgus CD38

[2] = molecular target: T2, F4 (peptide-Fc fusion derived from the extracellular domain of human CD38) (human, UniProt P0DOX5 223-449 = IgG part); test: SPR, antibody immobilized, peptide-Fc fusion injected
T2 construct: As F1; by count CD38 residues 82-94

[3] = molecular target: T3, F5 (peptide-Fc fusion derived from the extracellular domain of human CD38) (human, UniProt P0DOX5 223-449 = IgG part); test: as above
T3 construct: As F1; by count CD38 residues 95-107

[4] = molecular target: T4, F6 (peptide-Fc fusion derived from the extracellular domain of human CD38) (human, UniProt P0DOX5 195-449 = IgG part); test: as above
T4 construct: As F1; by count CD38 residues 108-120 (holds M110)

[5] = molecular target: T5, F7 (peptide-Fc fusion derived from the extracellular domain of human CD38) (human, UniProt P0DOX5 223-449 = IgG part); test: as above
T5 construct: As F1; by count CD38 residues 121-133

[6] = molecular target: T6, F8 (peptide-Fc fusion derived from the extracellular domain of human CD38) (human, UniProt P0DOX5 223-449 = IgG part); test: as above
T6 construct: As F1; by count CD38 residues 134-146

[7] = molecular target: T7, F9 (peptide-Fc fusion derived from the extracellular domain of human CD38) (human, UniProt P0DOX5 223-449 = IgG part); test: as above
T7 construct: As F1; by count CD38 residues 147-159

[8] = molecular target: T8, F10 (peptide-Fc fusion derived from the extracellular domain of human CD38) (human, UniProt P0DOX5 223-449 = IgG part); test: as above
T8 construct: As F1; by count CD38 residues 160-172

[9] = molecular target: T9, F11 (peptide-Fc fusion derived from the extracellular domain of human CD38) (human, UniProt P0DOX5 223-449 = IgG part); test: as above
T9 construct: As F1; by count CD38 residues 173-185

[10] = molecular target: T10, F14 (peptide-Fc fusion derived from the extracellular domain of human CD38) (human, UniProt P0DOX5 223-449 = IgG part); test: as above
T10 construct: As F1; by count CD38 residues 212-224

[11] = molecular target: T11, F16 (peptide-Fc fusion derived from the extracellular domain of human CD38) (human, UniProt P0DOX5 223-449 = IgG part); test: as above
T11 construct: As F1; by count CD38 residues 238-250

[12] = molecular target: T12, F18 (peptide-Fc fusion derived from the extracellular domain of human CD38) (human, UniProt P0DOX5 223-449 = IgG part); test: as above
T12 construct: As F1; by count CD38 residues 264-276

[13] = molecular target: T13, F19 (peptide-Fc fusion derived from the extracellular domain of human CD38) (human, UniProt P0DOX5 223-449 = IgG part); test: as above
T13 construct: As F1; by count CD38 residues 277-289

[14] = molecular target: T14, soluble extracellular region of human CD38 fused to a 6-His-tag (human, UniProt P28907 43-300); test: SPR, equilibrium response, antibody captured on protein G
T14 construct: Expressed with the murine VJ2C leader; also called human CD38 protein; human CD38 antigen

[15] = molecular target: T15, F1 (peptide-Fc fusion derived from the extracellular domain of human CD38) (human, UniProt P0DOX5 223-449 = IgG part); test: SPR, human 767 antibody immobilized on the chip, peptide-Fc fusion injected
T15 construct: 13-residue peptide fused to human IgG1 Fc (CH2-CH3) with an Ala-Ser linker; by count CD38 residues 43-55

[16] = molecular target: T16, F2 (peptide-Fc fusion derived from the extracellular domain of human CD38) (human, UniProt P0DOX5 223-449 = IgG part); test: as above
T16 construct: As F1; by count CD38 residues 56-68

[17] = molecular target: T17, F12 (peptide-Fc fusion derived from the extracellular domain of human CD38) (human, UniProt P0DOX5 223-449 = IgG part); test: as above
T17 construct: As F1; by count CD38 residues 186-198

[18] = molecular target: T18, F13 (peptide-Fc fusion derived from the extracellular domain of human CD38) (human, UniProt P0DOX5 223-449 = IgG part); test: as above
T18 construct: As F1; by count CD38 residues 199-211

[19] = molecular target: T19, F15 (peptide-Fc fusion derived from the extracellular domain of human CD38) (human, UniProt P0DOX5 223-449 = IgG part); test: as above
T19 construct: As F1; by count CD38 residues 225-237

[20] = molecular target: T20, F17 (peptide-Fc fusion derived from the extracellular domain of human CD38) (human, UniProt P0DOX5 223-449 = IgG part); test: as above
T20 construct: As F1; by count CD38 residues 251-263

[21] = molecular target: T21, F20 (peptide-Fc fusion derived from the extracellular domain of human CD38) (human, UniProt P0DOX5 223-449 = IgG part); test: as above
T21 construct: Final peptide of 11 amino acids, else as F1; by count CD38 residues 290-300

[22] = molecular target: T22, F3 (peptide-Fc fusion derived from the extracellular domain of human CD38) (human, UniProt P0DOX5 223-449 = IgG part); test: SPR, antibody immobilized on the chip, peptide-Fc fusion injected (1000 nM per paragraph 238)
T22 construct: As F1; by count CD38 residues 69-81; also called F3 construct

Kd [1]: ~1200 nM
binding result [2]: no binding (tested: 1000 nM)
binding result [3]: no binding (tested: 1000 nM)
binding result [4]: no binding (tested: 1000 nM)
binding result [5]: no binding (tested: 1000 nM)
binding result [6]: no binding (tested: 1000 nM)
binding result [7]: no binding (tested: 1000 nM)
binding result [8]: no binding (tested: 1000 nM)
binding result [9]: no binding (tested: 1000 nM)
binding result [10]: no binding (tested: 1000 nM)
binding result [11]: no binding (tested: 1000 nM)
binding result [12]: no binding (tested: 1000 nM)
binding result [13]: no binding (tested: 1000 nM)
Kd [14]: ~300 nM
binding result [15]: no binding
binding result [16]: no binding
binding result [17]: no binding
binding result [18]: no binding
binding result [19]: no binding
binding result [20]: no binding
binding result [21]: no binding
binding result [22]: binds
B1: human 767 antibody (antibody, human IgG1, kappa, V domains shown)
VH: QVQLVESGGGLVQPGGSLRLSCAASGFTFSSYWMSWVRQAPGKGLEWVANIKQDGSEKYYVDSVKGRFTISRDNAKNSLYLQMNSLRAEDTAVYYCAREGRTGYFDYWGQGTLVTVSS
VL: QSVLTQPPSASGTPGQRVTISCSGSTSNIGTNYVYWYQQLPGTAPKLLIYRNDQRPSGVPDRFSGSKSGTSASLAISGLRSEDEADYYCAAWDDSRSGVYAFGTGTKVTVLR
notes: Human IgG1
